Assay results reported in paper PMC11723585.

Biological target: endogenous knock-in V5-Halo-RXRα (human (endogenous in U2OS)) (UniProt P19793)
Chain of UniProt P19793 (P19793 whole entry): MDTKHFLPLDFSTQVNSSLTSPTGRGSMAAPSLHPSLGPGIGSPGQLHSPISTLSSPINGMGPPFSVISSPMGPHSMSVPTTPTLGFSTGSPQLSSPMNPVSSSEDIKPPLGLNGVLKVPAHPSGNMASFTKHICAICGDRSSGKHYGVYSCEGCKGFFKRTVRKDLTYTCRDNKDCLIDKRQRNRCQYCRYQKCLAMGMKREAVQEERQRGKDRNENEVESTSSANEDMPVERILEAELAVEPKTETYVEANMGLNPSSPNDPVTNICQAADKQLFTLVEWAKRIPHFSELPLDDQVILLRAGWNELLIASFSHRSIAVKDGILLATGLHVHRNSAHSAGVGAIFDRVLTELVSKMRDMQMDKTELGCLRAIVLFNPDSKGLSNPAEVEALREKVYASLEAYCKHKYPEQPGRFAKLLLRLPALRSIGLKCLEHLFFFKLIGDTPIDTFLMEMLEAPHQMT

chromatin-bound fraction of DR trajectories (f bound,DR) of RARα^RR-SNAP in Halo-RXRα knock-in U2OS cells: 7.5% | chromatin-bound fraction of PAPA trajectories (f bound,PAPA) of RARα^RR-SNAP in Halo-RXRα knock-in U2OS cells: 11.1%
Substance: RARα^RR-SNAPf-3xFLAG (from UniProt P10276 1-462) (natural protein)
